We go through two molecules from US10487307B2, “Culture method for pluripotent stem cells” (FUJIFILM CORPORATION, priority 2013, dated 2019).

Assay [1] relates to iPS cells. Nature of the assay: Evaluation of maintenance of undifferentiated state (reference examples). The format is cell-based, human. The procedure: iPS cells collected in the same manner as in <Cell adhesiveness evaluation 1> were suspended in TeSR2. The iPS cells were seeded into 6-well plate (Tissue culture-treated, Falcon), onto which each of the samples 1, 2, 5, 6, and 7 used in <Cell adhesiveness evaluation 1> was adsorbed in the same manner as in <Cell adhesiveness evaluation 1>, and cultured in a CO2 incubator at 37° C. Except for the day after the seeding, the medium was replaced every day. In the same method as described above, the cells were subcultured every six days.
After being cultured for 1 month under the conditions described above, the cells were immobilized using 4% paraformaldehyde and treated with 1% Triton-X/PBS so as to enhance the membrane permeability. After the cells were subjected to a blocking treatment using an Image IT Signal Enhancer (Invitrogen), an anti-human NANOG antibody (AF 1997, R&D Systems, Inc.), an Alexa Fluor 555 binding rabbit anti-goat IgG antibody (Invitrogen), and DAPI (4′,6-diamidino-2-phenylindole, Dojindo Molecular Technologies, Inc.) were added thereto for labeling, and the cells were imaged using a fluorescence microscope.
FIGS. 3A and 4A show the iPS cells cultured on RCP-1; FIGS. 3B and 4B show the iPS cells cultured on RCP-11; FIGS. 3C and 4C show the iPS cells cultured on natural human vitronectin; FIGS. 3D and 4D show the iPS cells cultured on rLaminin-5; and FIGS. 3E and 4E show the iPS cells cultured on rLaminin-511. The scale bar in the images indicates […]. In FIGS. 3A to 3E, the images on the left side are full images of the colony, and the images on the right side are magnified images. In FIGS. 4A to 4E, the images on the left side are images of the cells stained with DAPI, and the images on the right side are images of the cells stained with an anti-NANOG antibody. The scale bar in FIGS. 3A to 4E indicates 200 μm.

The subject of assay [2] is iPS cells. Kind of assay: Cell growth property evaluation 2 (2-mercaptoethanol concentration in Essential 8). Type of assay: cell-based, human. To be noted: RCP-11 100 μg/ml, 72 hours. The procedure:
A cell culture surface coated with RCP-11 was prepared in the same manner as in <Cell growth property evaluation 1> of Example 1. iPS cells collected in the same manner as in <Cell growth property evaluation 1> were suspended in the respective media composed as shown in Table 12 and seeded into wells at a cell density of 10,000 cells/well. After the cells were cultured for 72 hours, the number of cells were quantified in the same manner as in <Cell growth property evaluation 1>, and the cell growth properties were evaluated based on a cell growth rate which is a ratio calculated by regarding the number of cells cultured using RPC-11 as being 100%.

B1: RCP-1: recombinant polypeptide for culture, SEQ ID NO: 15; human vitronectin positions 1-55 and 269-459 with N-terminal methionine (protein)
chain: MDQESCKGRCTEGFNVDKKCQCDELCSYYQSCCTDYTAECKPQVTRGDVFTMPEDEPSQEECEGSSLSAVFEHFAMMQRDSWEDIFELLFWGRTSAGTRQPQFISRDWHGVPGQVDAAMAGRIYISGMAPRPSLAKKQRFRHRNRKGYRSQRGHSRGRNQNSRRPSRATWLSLFSSEESNLGANNYDDYRMDWLVPATCEPIQSVFFFSGDKYYRVNLRTRRVDTVDPPYPRSIAQYWLGCPAPGHL
modifications: Vitronectin-derived Recombinant Protein (RCP-1)
Regarding B1, the “form of iPS cell colony” value in the assay with iPS cells [1] (TeSR2, subcultured every six days, FIGS. 3A to 3E) is “form specific to undifferentiated cells”. In addition, in the assay on iPS cells [1] (cultured for 1 month in TeSR2, anti-NANOG staining, FIGS. 4A to 4E), the “NANOG expression” value is listed as “strongly expressed NANOG in the entirety of the colony”.

B2: RCP-11: recombinant polypeptide for culture, SEQ ID NO: 25; vitronectin positions 1-55, 269-277, 295-341, 342-373, C274S (protein)
chain: MDQESCKGRCTEGFNVDKKCQCDELCSYYQSCCTDYTAECKPQVTRGDVFTMPEDESQEESEGSEDIFELLFWGRTSAGTRQPQFISRDWHGVPGQVDAAMAGRIYISGMAPRPSLAKKQRFRHRNRKGYRSQRGHSRGRNQN
modifications: Vitronectin-derived Recombinant Protein (RCP-11)
notes: vitronectin positions 1-55, 269-277, 295-341, 342-373, C274S
Turning to B2, the Cell growth rate with iPS cells [2] (Essential8, 2-mercaptoethanol 0, 10,000 cells/well, this = 100%) came to 100%; in the assay on iPS cells [2] (Essential8, 2-mercaptoethanol 10 μM (0.0000078% by mass)), 104.1%; in the assay with iPS cells [2] (Essential8, 2-mercaptoethanol 10 μM (0.000078% by mass)), 97.3%; in the assay with iPS cells [2] (Essential8, 2-mercaptoethanol 100 μM (0.00078% by mass)) it was 49.2%; in the assay with iPS cells [2] (Essential8, 2-mercaptoethanol 1 mM (0.0078% by mass)) it was 38.7%; in the assay on iPS cells [2] (Essential8, 2-mercaptoethanol 10 mM (0.078% by mass)), 40.2%.
